The DeepSol protein solubility set

Assay: soluble on expression in E. coli; label from the status in PepcDB or PDB records

| Sequence | soluble on expression in E. coli |
| --- | --- |
| MSLRLRTLKDLDQAALLLARACALLLDDNTDVPDLRQVIFKCVPKNRLAESVSKVNELARPQNNNFHDEMVEQYGRVKRFLPAVLRDLHFRAAPAGEHVLAAIHYLAELNGSKKRILDDAPEHIITGPWKRLVYDAEGRIQRAGYSLCLLERLQDALRRRDIWLENSDRWGDPREKLLQGEEWQTQRIPVCRALGHPVDGRKGVQQLAIQLDETWKAVASRFEKNAEVHICNEGKYPSLTISCLEKQEEPPSLLRLNNRIKQLLPPVDLTELLLEIDAQTGFTHEFAHVSESGARAQDLHISLCAVLMAEACNIGLEPLIKHNIPALTRHRLSWVKQNYLRAETLVSANARLVDFQSTLELAGRWGGGEVASADGMRFVTPVKTINSGSNRKYFGSGRGITWYNFVSDQYSGFHGIVVPGTLRDSIFVLEGLLEQQTGLNPVEIMTDTAGSSDIIFGLFWLLGYQFSPRLADAGEAVFWRVNKSANYGVLDKLARGYADLSKAESQWDEMMRTAGSLKLGTIHASELIRSLLKSSRPSGLAQAIMEVGRVNKTLYLLNYIDDEDYRRRILTQLNRGEGRHAVARAICYGQRGEIRKRYREGQEDQLGALGLVTNAVVLWNTLYMEEALSWMRRNGEEIIDEDIARLSPLMHGHINMLGHYTFTLPEDILKGELRALNEGHHHHHH | not soluble |
| MKKSNIYIGEVIKQVIAEKQVTKAELARRLGVKPQSVDYLLTRKSIDTDTLYSLSLALDYDFAVLYSIKKEHALATDEESPFKVGNAKISLEIELRPDEMLKLNLKQKIADLLEGKGK | not soluble |
| MVKTMKWARIGDIIVLNREADDPEALLEMEGVRSVIRVEGIHGPLRRPRVRVLAGSGTETVHKENGCLFRIDLSRVMWSRGNINERARIPSLVEEGETVVDMFAGIGYFSIPVAVHSDPGRVYSVELNPDSFELLKSNITLNRVEGIIEPILGDCREVAPELDADRVIMGYVGRTHHFLDAAMECVRDGGVIHYHETAPEAIRFSRPLRRIERAAHPRRVSLLDKRVIKKYSPGVWHVVLDVRIH | soluble |
| MQARVKWVEGLTFLGESASGHQILMDGNSGDKAPSPMEMVLMAAGGCSAIDVVSILQKGRQDVVDCEVKLTSERREADTRLFTHINLHFIVTGRDLKDAAVARAVDLSAEKYCSVALMLEKAVNITHSYEVVAA | soluble |
| MSGTRKKALLKVIILGDSGVGKTSLMNQYVNRRFSNQYKATIGADFLTRDVNIDDRTVTLQIWDTAGQERFQSLGVAFYRGADCCVLAFDVTNAASFKSLDSWRDEFLIQASPRDPDHFPFVLLGNKVDLESQRAVSSKRAQSWCQTKGNIPYYEVSAKEALNVEAAFLAIARDALARESQETNDFPEFPDQIRLNPNQQNQQNSGCNC | not soluble |
| MALLVTQPSEGLPPLAATSRSIYEAAYQLSQGTGPFAIDTERAGAYRYDDRAYLLQIRREGSGTVLIDPEANRRLVTSVLGKVINNQPWIIHAAATDLPCLSELGFYPSTIFDTELAGRLAGLPRVNLASMLEERLEVTLKKAHGAEDWSRRPLPHSWLVYAALDVEKLIPLAESMKLLLEAHGKLEWHKQECAHLINTSSHGLDTQRSWQDIKGVSRLTRPRQLVVAEALWELRDDEARMKNTSVSRLLPDKVLISVAQRPPRNSQAALRASEIPKQYRKRIARWMPTINDVLESDPRTWPHTPQFDENQLPSKYVWEKIHPESLDDFEEVKNSIVEKALLLNLPAENLMQPHSVKELCWQLRDVPRPIAQDDVIECLMRLEARPWQIDNSASVITDTLNKIEHAS | not soluble |
| MGEPKDSLALFLCHESESSLNEDDDETIERSDKQEPHFTTTIDDEDYVADLVLKENLRFETLPSKTTSSSDRLIAIDWILTTRTRFGFQHQTAYIAISYFDLFLHKRFIGLQKDETWAMRLLSVACLSLAAKMEERIVPGLSQYPQDHDFVFKPDVIRKTELLILSTLDWKMNLITPFHYFNYFLAKISQDNHSVSKDLVLLRSSDSLLALTKEISFTEYRQFVVAAVTTLLASSSTSSDIRLTREEIANKFGSISWWTSNENENVYLCYQRTLEIEERKHMTPPPEIAVSREPPASGSGAKRRLSFDDSDQSSPPAKRMRRL | soluble |
| STAIDGQGKDQVIFVTKEEHETPSTVKQEEEDTNEDPKGKGLILPTGEINWDCPCLGGMASGVCGEQFKSAFTCFHFSQEEVKGSDCLEQFISMQECFHQHPELFPQDNNDLQTADPDQEHSSSISDFTTNKESDSLPTETDEIPTQLPVVS | soluble |
| MSLALVAEKLSEQWRAELDSRGLDAAPMADWMTVCRRLSLALAGTGLSLEEIRSLQRLPEADRVETHRERLLNSERFHHYWAERTARYLVGADEGPFIFYRGRRFRSWLTEQYAKNTRYDELVRMLITAEGVWTDRPEVNFHTVTFDSGDNAPDPIRLAARTTRAFLGVRIDCLQCHDDFLGNVSLGDASWIMCGVGDATMQAAAEGDAKYVLREGTQEDFHSLAAFFTAATSEGVQGLKDKRANYEYQYLYADETVPVEPNVPFLRELLPPRPENRQDDSSDDDSTDTTDESASDEPSDAPEPLELPRYLSDRERLAYWLTHTENKPAARAAVTRVWTLLFGQPPAIETDYGFQVGEVDNLPLDSPPSPLIETLTEAFIESDFNIRKLIRCITDSPAFRVSSRADFDVTEQHELAMAVFPVTHLRSEQVAGAAIQAGRIKTINRDSSFLVQLQQFGSLNDFLKRYGDLGEDEFTQQPVTITQRLVMLNGKLINETASPNPILNASSHIEMFAKDDEDVVRTLYLTVLNREPSERELEHFVKRLTAESREQNDPPTSRKQEITDLTWILLNSSEFAWNHEGHHHHHH | not soluble |
| MAHLLQLHHVSKSYREKKAIDDLTITIPNGKIIGLLGPNGSGKTTLIKLINGLLQPNKGEIVIDGYRPCVETKKIISYLPDTTYLNENMRIKDMLEFFSDFYSDFDKSKATSLLRDLELDPEDRFKTLSKGNKEKVQLILVMSRKARLYVLDEPIGGVDPAARDYILKTIINSYCENASVIISTHLISDIEPILDEVIFLKQGRLFLSGNADDLRQEYQQSIDSLFRETYKV | not soluble |
| MGSDKIHHHHHHMKIDRSVIRSLALFAKMADDELDGLLTHATSRLVPPGEAIFEQGQSAAHFFLLIHGRLKVTQVTHDGQQIIVRMVHPGDLFGFARALQRSDYPGTATTAAESVILSWQTDLWPQFVEQNPHLAVSAMQTIGQRLEEAHTRIREMSTQEVERRVAHAVLRLSQQAGRKELDGIRIDFPISRQDIAEMTGTTLHTVSRILSSWESKGLVQGGRQKLLVCNLPGLAQLAEGETSQV | not soluble |
| MMAVENAVDYPISVRLPSYVVEKIDELVKKRKFRSRSDFIKFAVTFALGQIMMEEARERAKNEPEELEKERKEAWMRLRAGDFSKEDEETLELLKKVDARYKRLGGRS | soluble |
| MGHHHHHHSHLTVQFVPSQNAGTLEAKAKPLEKLLSKELGIPVKVSVSTNYNTIVEAMKSKKVDVGFLPPTAYTLAHDQKAADLLLQAQRFGVKEDGSASKELVDSYKSEILVKKDSKIKSLKDLKGKKIALQDVTSTAGYTFPLAMLKNEAGINATKDMKIVNVKGHDQAVISLLNGDVDAAAVFNDARNTVKKDQPNVFKDTRILKLTQAIPNDTISVRPDMDKDFQEKLKKAFIDIAKSKEGHKIISEVYSH | not soluble |
| EVMLVESGGGLVKPGGSLKLSCAASGFTFSSYTMSWVRQTPEKRLEWVATISSGGGNTYYPDSVKGRFTISRDIAKNTLYLQMSSLRSEDTALYYCTRLGDYGYAYTMDYWGQGTSVTVSSAKTTPPSVYPLAPGGGGGGGAMVTLGCLVKGYFPEPVTVTWNSGSLSSGVHTFPAVLQSDLYTLSSSVTVPSSPWPSETVTCNVAHPASSTKVDKKIVPRDC | soluble |
| MGSDKIHHHHHHENLYFQGMRISANFDGGNIETISLANPDDIQLAIRPDAGGEFYQWFNFRFEATIGKTYTLNILNAGGASYLKGWEDYQAVASYDRQTWFRLPTEYKDGKLSISVELDCEAIQIAYFTPYSYERHLDLISAVQLHPLVSTEHLGLTLDGRDMTLVKVGDDDPSKKSIWITARQHPGETMAEWLVEGLLNQLLDNDCPTSKALLDKANFYIVPNMNPDGSVRGHLRTNAVGANLNREWQTPSLERSPEVYYVVNKMHETGVDLFYDVHGDEGLPYVFLAGCEGIPNYSDKLASLQQDFVAALSLASADFQTEFGYDKDEPGKANLTVACNWVANTFKCLSNTLEMPFKDNANLADPFQGWSPERSVYFGEASLIAMRAVIDKIGQ | soluble |
| MGSDKIHHHHHHMMFKQVQQDFMDYIRDPNQPLPKGIEPRRMKIYRDLFFNNLDGFVSSAFPVLKSLYASDDWQLLVQAFFVNHDCQSPIFMDIAAEFLQFLQTEYQTKESDPGFMLELAHYEWLELVVAVAQEDEQLMTLSQDEVKTAKMCLNSTARVAQYHFDVQHISVDYQPVEPTPQGQFFCVYRDNADEVAFLQLSPLSAQVLAYLEQSQQSTLLELCHWLAGLYPNMATEQLNQGAFGLLAQLADKGIVKTRA | not soluble |
| MVMVNFTAGKWISEPKVSEVTSEFVSITTEPKTDFWQRSYYGFRNENAPALLIDSKDNFTFTAKVSFAYQQLFDQCGLIIYLDNENWFKASIEYENQSFSRLGSVVTNLGYSDWATTDIPLPKEIWYRLSRRGPDFLIESSFDGLVFNQMRIFHLHRLGETTIEMGKCNPPLPTQKVVSFGVYACSPSESSFTAKFTEMSLEPCKWLAHLEHHHHHH | soluble |
| MLADKESLIEALKLALSTEYNVKRNFTQSVEIILTFKGIDMKKGDLKLREIVPLPKQPSKAKRVLVVPSSEQLEYAKKASPKVVITREELQKLQGQKRPVKKLARQNEWFLINQESMALAGRILGPALGPRGKFPTPLPNTADISEYINRFKRSVLVKTKDQPQVQVFIGTEDMKPEDLAENAIAVLNAIENKAKVETNLRNIYVKTTMGKAVKVKR | soluble |
| EVKLVESGGGLVLPGGSLRLSCATSGFTFTDYYMTWVRQPPGKALEWLGFIGNKANDYTTEYSASVKGRFTISRDDSQSILYLQMSTLRAEDRATYYCATVYGNYPYFDVWGAGTTVAVSSAKTTPPSVYPLAPVCGGTTGSSVTLGCLVKGYFPEPVTLTWNSGSLSSGVHTFPAVLQSGLYTLSSSVTVTSSTWPSQSITCNVAHPASSTKVDKKIEPR | soluble |
| MQLGETAEEACLRELYEETGLQLEIERLAFIHENFFTGQESDFLNKVNCHELSFYFLMKPLTENLSVKSESFGTDGSKEFLKWIPIAEYKNYKAFPTFFADELKNLSVNSQIKRIVTTELEHHHHHH | not soluble |
| MRMILMFDMPTETAEERKAYRKFRKFLLSEGFIMHQFSVYSKLLLNNTANNAMIGRLKVNNPKKGNITLLTVTEKQFARMVYLHGERNTSVANSDSRLVFLGDSYDQDLEHHHHHH | not soluble |
| MRNPENVLNSLSKHSGNLNYKFERLYRVLFNEEMFYVAYQNIYSKTGNMTAGADGKTIDGMSIDRVEQLIGSLKNETYQPNPSKRTYIPKKNGKKRPLGIPSFDDKLVQEVVRMILEAIYEGSFEHTSHGFRPKRSCHTALIDIQKTFTAVKWFIEGDIKGFFDNINHDVLINILRERIADERFLRLIRKFLNAGYVEDWVFHRTYSGTPQGGIISPILANIYLDKFDKYIKEYINRFNKGVTRKGDARYKLYEQRRYRLAKKLKNEKDVKVRKQMTAEIKRLREERNNYPARNEMDSSIKRLKYVRYADDFLIGITGNLEDCKTVKEDIKNYLNEALKLELSDEKTLITNAQKPAKFLGYDVFIRRCNDLRKDKYGKTVRAFGHKPVLYLNFETMRKKLFDYKAARIAVVNGKEVWKSIVRTYMLNLDDLEIVSQFNAEIRGFYNYYSIANNSYVINSFYHIMSYSMYKVFANKYKSSVKKILLKYKKNKVFQVAYENSKGKTLYQSFYHDGFKRKKVAGNIYCDTIPRTVSITGGRNSLMERLKLQVCELCGATDKLEMHHVRKLKDLKGKSDWEKKMIARRRKTLAVCSKCHAKIDPDRRIRLNLEHHHHHH | soluble |
